IC50 of pseudovirus neutralization (luciferase activity) data for one molecule are collected here from patent publication US20240067706A1.

Substrate in the assay: S proteins of SARS-CoV-2 and mutant strains thereof on pseudoviruses
As to the kind of experiment: cell-based or functional assay.

B1: fully human monoclonal antibody 76E1 (antibody, V domains shown)
VH: EVQLVESGGGVVQPGGSLRLSCEASGFSFKDYGMHWIRQTPGKGLEWISRISGDTRGTSYVDSVKGRFIVSRDNSRNSLFLQMNSLRSEDTALYYCAALVIVAAGDDFDLWGQGTVVTVSS
VL: QSALTQPLSVSGSPGQSVTISCTGSSSDIGSYNFVSWYRQYPGKAPKVMIYEVNKRPSGVPVRFSGSKSGNTASLTVSGLQHEDEADYYCCSYGGRNNLIFGGGTKLTVL
For B1, the IC50 of pseudovirus neutralization (luciferase activity) is 0.397 µg/mL.
